Results taken from publication PMC5573662 (Bioorganic & medicinal chemistry, 2017).
Square brackets hold non-standard residues; d marks the D form. Ends that are not written are not given here. His(π-(CH2)8Ph) = N[C@@H](Cc1cncn1CCCCCCCCc1ccccc1)C(=O)O; pT = C[C@@H](OP(=O)(O)O)[C@H](N)C(=O)O

Target: full-length polo-like kinase 1 (Plk1) (UniProt P53350 1-603)
Test: ELISA

Chain of full-length polo-like kinase 1 (Plk1) (P53350 whole entry): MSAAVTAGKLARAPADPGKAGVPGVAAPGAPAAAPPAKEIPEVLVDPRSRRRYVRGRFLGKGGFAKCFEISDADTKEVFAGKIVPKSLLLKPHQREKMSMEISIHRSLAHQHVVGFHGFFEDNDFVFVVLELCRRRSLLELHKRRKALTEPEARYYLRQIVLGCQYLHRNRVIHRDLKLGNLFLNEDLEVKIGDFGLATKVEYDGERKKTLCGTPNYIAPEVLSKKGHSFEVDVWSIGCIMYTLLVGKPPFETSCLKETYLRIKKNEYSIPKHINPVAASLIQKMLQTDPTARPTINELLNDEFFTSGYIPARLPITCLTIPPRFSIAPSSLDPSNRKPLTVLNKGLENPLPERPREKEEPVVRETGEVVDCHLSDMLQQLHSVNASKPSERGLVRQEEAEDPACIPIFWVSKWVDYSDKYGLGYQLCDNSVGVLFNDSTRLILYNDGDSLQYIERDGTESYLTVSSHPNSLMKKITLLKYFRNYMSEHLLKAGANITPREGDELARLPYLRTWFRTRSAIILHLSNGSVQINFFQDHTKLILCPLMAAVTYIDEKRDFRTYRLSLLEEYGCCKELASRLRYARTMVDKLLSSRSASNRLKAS

PL[His(π-(CH2)8Ph)]S[pT] [PLH*SpT (2a)]
IC50: 181 nM
